In paper PMC4527729, “The Inner Membrane Protein PilG Interacts with DNA and the Secretin PilQ in Transformation”:

How the values were obtained:
Details in all cases: protein: recombinant; tags: C-terminal 6xHis; label: 32P end label; blunt
PilG1-80 = PilG1-80 (Neisseria meningitidis MC58, UniProt Q7DDR1 1-80); assay: EMSA; 5 mM MgCl2; Optimized EMSA: 50 mM HEPES pH 7.5, 100 mM NaCl, 5 mM MgCl2, 1 mM DTT, 10% glycerol, 0.05% DDM, on ice 15 min, 0.45 nM DNA; first EMSA: 25 mM NaH2PO4 pH 8.0, 150 mM NaCl, 1 mM DTT, 10% glycerol, 0.05% DDM, on ice
PilG EEE39-41AAA = PilG EEE39-41AAA (Neisseria meningitidis MC58, UniProt Q7DDR1 1-410, E39A;E40A;E41A); assay: South-western; increased vs FL per text; Optimized EMSA: 50 mM HEPES pH 7.5, 100 mM NaCl, 5 mM MgCl2, 1 mM DTT, 10% glycerol, 0.05% DDM, on ice 15 min, 0.45 nM DNA; first EMSA: 25 mM NaH2PO4 pH 8.0, 150 mM NaCl, 1 mM DTT, 10% glycerol, 0.05% DDM, on ice
PilG1-178 = PilG1-178 (Neisseria meningitidis MC58, UniProt Q7DDR1 1-178); assay: EMSA; 5 mM MgCl2; DUS+ duplex assigned by Table 2 EMSA footnote; Optimized EMSA: 50 mM HEPES pH 7.5, 100 mM NaCl, 5 mM MgCl2, 1 mM DTT, 10% glycerol, 0.05% DDM, on ice 15 min, 0.45 nM DNA; first EMSA: 25 mM NaH2PO4 pH 8.0, 150 mM NaCl, 1 mM DTT, 10% glycerol, 0.05% DDM, on ice
PilG SS62-63AA = PilG SS62-63AA (Neisseria meningitidis MC58, UniProt Q7DDR1 1-410, S62A;S63A); assay: South-western; same as FL; Optimized EMSA: 50 mM HEPES pH 7.5, 100 mM NaCl, 5 mM MgCl2, 1 mM DTT, 10% glycerol, 0.05% DDM, on ice 15 min, 0.45 nM DNA; first EMSA: 25 mM NaH2PO4 pH 8.0, 150 mM NaCl, 1 mM DTT, 10% glycerol, 0.05% DDM, on ice
PilG Q55A = PilG Q55A (Neisseria meningitidis MC58, UniProt Q7DDR1 1-410, Q55A); assay: as above
PilG RKK43-45AAA = PilG RKK43-45AAA (Neisseria meningitidis MC58, UniProt Q7DDR1 1-410, R43A;K44A;K45A); assay: EMSA; extrapolated; about 50% bound at 5 uM per text; Optimized EMSA: 50 mM HEPES pH 7.5, 100 mM NaCl, 5 mM MgCl2, 1 mM DTT, 10% glycerol, 0.05% DDM, on ice 15 min, 0.45 nM DNA; first EMSA: 25 mM NaH2PO4 pH 8.0, 150 mM NaCl, 1 mM DTT, 10% glycerol, 0.05% DDM, on ice
PilG166-410 = PilG166-410 (Neisseria meningitidis MC58, UniProt Q7DDR1 166-410); assay: South-western; Optimized EMSA: 50 mM HEPES pH 7.5, 100 mM NaCl, 5 mM MgCl2, 1 mM DTT, 10% glycerol, 0.05% DDM, on ice 15 min, 0.45 nM DNA; first EMSA: 25 mM NaH2PO4 pH 8.0, 150 mM NaCl, 1 mM DTT, 10% glycerol, 0.05% DDM, on ice
PilG30-80 = PilG30-80 (Neisseria meningitidis MC58, UniProt Q7DDR1 30-80); assay: as above
PilG257-410 = PilG257-410 (Neisseria meningitidis MC58, UniProt Q7DDR1 257-410); assay: as above
PilG1-60 = PilG1-60 (Neisseria meningitidis MC58, UniProt Q7DDR1 1-60); assay: as above
PilG FL = PilG FL (Neisseria meningitidis MC58, UniProt Q7DDR1 1-410); assay: EMSA; optimized EMSA; R2 0.96?; Optimized EMSA: 50 mM HEPES pH 7.5, 100 mM NaCl, 5 mM MgCl2, 1 mM DTT, 10% glycerol, 0.05% DDM, on ice 15 min, 0.45 nM DNA; first EMSA: 25 mM NaH2PO4 pH 8.0, 150 mM NaCl, 1 mM DTT, 10% glycerol, 0.05% DDM, on ice

B1: HH7HH8 (dsDNA)
DNA 1: AACAACAACAAATGCCGTCTGAACCAACATGCCGTCTGAAAACAACAACAAC
DNA 2: GTTGTTGTTGTTTTCAGACGGCATGTTGGTTCAGACGGCATTTGTTGTTGTT
With B1 the “apparent K (half saturation)” value (PilG1-80) was 283 nM, the binding result (PilG EEE39-41AAA) was “binds” and the “apparent K (half saturation)” value (PilG1-178) was 269 nM. For the same binder, the binding result (PilG SS62-63AA) was “binds”, the binding result (PilG Q55A) was “binds” and the “apparent K (half saturation)” value (PilG RKK43-45AAA) was about 685 µM. B1: no binding (PilG166-410); no binding (PilG30-80); no binding (PilG257-410). The binding result (PilG1-60) was “no binding” and the “apparent K (half saturation)” value (PilG FL) was 1070 nM.
